T1: Human CD3eg linker (human)
T1 construct: single-chain construct; also called recombinant human CD3
T1 chain: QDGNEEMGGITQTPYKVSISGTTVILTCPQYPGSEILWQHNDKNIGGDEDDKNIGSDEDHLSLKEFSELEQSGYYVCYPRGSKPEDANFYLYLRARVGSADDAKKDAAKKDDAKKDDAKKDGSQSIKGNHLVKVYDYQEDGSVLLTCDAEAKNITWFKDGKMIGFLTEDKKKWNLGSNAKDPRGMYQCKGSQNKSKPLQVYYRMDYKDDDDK


Tests used:
Human CD3eg linker = target: T1, Human CD3eg linker; test: SPR, vs unmutated H183/L072
[1] = target: T2, CD3 epsilon homodimer protein (UniProt P07766 23-126); test: SPR (Biacore T200), CD3 epsilon homodimer on CM4 chip, one-arm antibody as analyte, 25 C;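 also: homodimer attached to the sensor surface via amine coupling, HBS-EP+ used as running buffer during binding runs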
T2 construct: immobilized on Sensor chip CM4 by amine coupling; also called CD3 (CD3 epsilon)
T2 sequence (P07766 23-126): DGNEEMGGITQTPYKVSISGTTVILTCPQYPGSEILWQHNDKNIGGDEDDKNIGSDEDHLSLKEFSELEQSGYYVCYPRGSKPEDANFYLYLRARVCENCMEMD

| Binder | fold change of affinity (Human CD3eg linker) [fold] | ratio of amounts bound (altered form / CE115HA000) [1] |
| --- | --- | --- |
| dBBDu183H Y94W/dBBDu072L (antibody, name in Kabat numbering, V domains shown) VH: QVQLVESGGGLVQPGRSLRLSCAASGFTFSNAWMHWVRQAPGKGLEWVAQIKDKGNAYAAYYAPSVKGRFTISRDDSKNSIYLQMNSLKTEDTAVYYCHWVHYASASTVLPAFGVDAWGQGTTVTVSS VL: DIVMTQSPLSLPVTPGEPASISCQASQELVHMNRNTYLHWYQQKPGQAPRLLIYKVSNRFPGVPDRFSGSGSGTDFTLKISRVEAEDVGVYYCAQGTSVPFTFGQGTKLEIK | 0.4 |  |
| dBBDu183H Y97G/dBBDu072L (antibody, name in Kabat numbering, V domains shown) VH: QVQLVESGGGLVQPGRSLRLSCAASGFTFSNAWMHWVRQAPGKGLEWVAQIKDKGNAYAAYYAPSVKGRFTISRDDSKNSIYLQMNSLKTEDTAVYYCHYVHGASASTVLPAFGVDAWGQGTTVTVSS VL: DIVMTQSPLSLPVTPGEPASISCQASQELVHMNRNTYLHWYQQKPGQAPRLLIYKVSNRFPGVPDRFSGSGSGTDFTLKISRVEAEDVGVYYCAQGTSVPFTFGQGTKLEIK | 0 |  |
| dBBDu183H Y97E/dBBDu072L (antibody, name in Kabat numbering, V domains shown) VH: QVQLVESGGGLVQPGRSLRLSCAASGFTFSNAWMHWVRQAPGKGLEWVAQIKDKGNAYAAYYAPSVKGRFTISRDDSKNSIYLQMNSLKTEDTAVYYCHYVHEASASTVLPAFGVDAWGQGTTVTVSS VL: DIVMTQSPLSLPVTPGEPASISCQASQELVHMNRNTYLHWYQQKPGQAPRLLIYKVSNRFPGVPDRFSGSGSGTDFTLKISRVEAEDVGVYYCAQGTSVPFTFGQGTKLEIK | 0 |  |
| dBBDu183H Y97D/dBBDu072L (antibody, name in Kabat numbering, V domains shown) VH: QVQLVESGGGLVQPGRSLRLSCAASGFTFSNAWMHWVRQAPGKGLEWVAQIKDKGNAYAAYYAPSVKGRFTISRDDSKNSIYLQMNSLKTEDTAVYYCHYVHDASASTVLPAFGVDAWGQGTTVTVSS VL: DIVMTQSPLSLPVTPGEPASISCQASQELVHMNRNTYLHWYQQKPGQAPRLLIYKVSNRFPGVPDRFSGSGSGTDFTLKISRVEAEDVGVYYCAQGTSVPFTFGQGTKLEIK | 0 |  |
| dBBDu183H Y97F/dBBDu072L (antibody, name in Kabat numbering, V domains shown) VH: QVQLVESGGGLVQPGRSLRLSCAASGFTFSNAWMHWVRQAPGKGLEWVAQIKDKGNAYAAYYAPSVKGRFTISRDDSKNSIYLQMNSLKTEDTAVYYCHYVHFASASTVLPAFGVDAWGQGTTVTVSS VL: DIVMTQSPLSLPVTPGEPASISCQASQELVHMNRNTYLHWYQQKPGQAPRLLIYKVSNRFPGVPDRFSGSGSGTDFTLKISRVEAEDVGVYYCAQGTSVPFTFGQGTKLEIK | 0 |  |
| CE115HA000 H35A one-arm antibody (antibody, human IgG1, kappa, L234A L235A, N297A, name in Kabat numbering) heavy: QVQLVESGGGVVQPGRSLRLSCAASGFTFSNAWMAWVRQAPGKGLEWVAQIKAKSNNYATYYAESVKGRFTISRDDSKNSLYLQMNSLKTEDTAVYYCRYVHYGAYYGVDAWGQGTTVTVSSASTKGPSVFPLAPSSKSTSGGTAALGCLVKDYFPEPVTVSWNSGALTSGVHTFPAVLQSSGLYSLSSVVTVPSSSLGTQTYICNVNHKPSNTKVDKKVEPKSCDKTHTCPPCPAPEAAGGPSVFLFPPKPKDTLMISRTPEVTCVVVDVSHEDPEVKFNWYVDGVEVHNAKTKPREEQYASTYRVVSVLTVLHQDWLNGKEYKCKVSNKALPAPIEKTISKAKGQPREPQVYTLPPSRCELTKNQVSLSCAVKGFYPSDIAVEWESNGQPENNYKTTPPVLDSDGSFFLVSKLTVDKSRWQQGNVFSCSVMHEALHNHYTQKSLSLSPDYKDDDDK EPKSSDKTHTCPPCPAPELLGGPSVFLFPPKPKDTLMISRTPEVTCVVVDVSHEDPEVKFNWYVDGVEVHNAKTKPREEQYNSTYRVVSVLTVLHQDWLNGKEYKCKVSNKALPAPIEKTISKAKGQPREPQVCTLPPSRDELTKNQVSLWCLVKGFYPSDIAVEWESNGQPENNYKTTPPVLDSDGSFFLYSKLTVDKSRWQQGNVFSCSVMHEALHNRYTQKSLSLSP light: DIVMTQSPLSLPVTPGEPASISCRSSQSLVHSNRNTYLHWYQQKPGQAPRLLIYKVSNRFSGVPDRFSGSGSGTDFTLKISRVEAEDVGVYYCGQGTQVPYTFGQGTKLEIKRTVAAPSVFIFPPSDEQLKSGTASVVCLLNNFYPREAKVQWKVDNALQSGNSQESVTEQDSKDSTYSLSSTLTLSKADYEKHKVYACEVTHQGLSSPVTKSFNRGEC |  | 0.17 |
| CE115HA000 A32Y one-arm antibody (antibody, human IgG1, kappa, L234A L235A, N297A, name in Kabat numbering) heavy: QVQLVESGGGVVQPGRSLRLSCAASGFTFSNYWMHWVRQAPGKGLEWVAQIKAKSNNYATYYAESVKGRFTISRDDSKNSLYLQMNSLKTEDTAVYYCRYVHYGAYYGVDAWGQGTTVTVSSASTKGPSVFPLAPSSKSTSGGTAALGCLVKDYFPEPVTVSWNSGALTSGVHTFPAVLQSSGLYSLSSVVTVPSSSLGTQTYICNVNHKPSNTKVDKKVEPKSCDKTHTCPPCPAPEAAGGPSVFLFPPKPKDTLMISRTPEVTCVVVDVSHEDPEVKFNWYVDGVEVHNAKTKPREEQYASTYRVVSVLTVLHQDWLNGKEYKCKVSNKALPAPIEKTISKAKGQPREPQVYTLPPSRCELTKNQVSLSCAVKGFYPSDIAVEWESNGQPENNYKTTPPVLDSDGSFFLVSKLTVDKSRWQQGNVFSCSVMHEALHNHYTQKSLSLSPDYKDDDDK EPKSSDKTHTCPPCPAPELLGGPSVFLFPPKPKDTLMISRTPEVTCVVVDVSHEDPEVKFNWYVDGVEVHNAKTKPREEQYNSTYRVVSVLTVLHQDWLNGKEYKCKVSNKALPAPIEKTISKAKGQPREPQVCTLPPSRDELTKNQVSLWCLVKGFYPSDIAVEWESNGQPENNYKTTPPVLDSDGSFFLYSKLTVDKSRWQQGNVFSCSVMHEALHNRYTQKSLSLSP light: DIVMTQSPLSLPVTPGEPASISCRSSQSLVHSNRNTYLHWYQQKPGQAPRLLIYKVSNRFSGVPDRFSGSGSGTDFTLKISRVEAEDVGVYYCGQGTQVPYTFGQGTKLEIKRTVAAPSVFIFPPSDEQLKSGTASVVCLLNNFYPREAKVQWKVDNALQSGNSQESVTEQDSKDSTYSLSSTLTLSKADYEKHKVYACEVTHQGLSSPVTKSFNRGEC |  | 0.33 |

Continued, values first:

| fold change of affinity (Human CD3eg linker) [fold] | ratio of amounts bound (altered form / CE115HA000) [1] | Binder |
| --- | --- | --- |
| 0 |  | dBBDu183H Y97R/dBBDu072L (antibody, name in Kabat numbering, V domains shown) VH: QVQLVESGGGLVQPGRSLRLSCAASGFTFSNAWMHWVRQAPGKGLEWVAQIKDKGNAYAAYYAPSVKGRFTISRDDSKNSIYLQMNSLKTEDTAVYYCHYVHRASASTVLPAFGVDAWGQGTTVTVSS VL: DIVMTQSPLSLPVTPGEPASISCQASQELVHMNRNTYLHWYQQKPGQAPRLLIYKVSNRFPGVPDRFSGSGSGTDFTLKISRVEAEDVGVYYCAQGTSVPFTFGQGTKLEIK |
| 0 |  | dBBDu183H Y97Q/dBBDu072L (antibody, name in Kabat numbering, V domains shown) VH: QVQLVESGGGLVQPGRSLRLSCAASGFTFSNAWMHWVRQAPGKGLEWVAQIKDKGNAYAAYYAPSVKGRFTISRDDSKNSIYLQMNSLKTEDTAVYYCHYVHQASASTVLPAFGVDAWGQGTTVTVSS VL: DIVMTQSPLSLPVTPGEPASISCQASQELVHMNRNTYLHWYQQKPGQAPRLLIYKVSNRFPGVPDRFSGSGSGTDFTLKISRVEAEDVGVYYCAQGTSVPFTFGQGTKLEIK |
| 0 |  | dBBDu183H Y97V/dBBDu072L (antibody, name in Kabat numbering, V domains shown) VH: QVQLVESGGGLVQPGRSLRLSCAASGFTFSNAWMHWVRQAPGKGLEWVAQIKDKGNAYAAYYAPSVKGRFTISRDDSKNSIYLQMNSLKTEDTAVYYCHYVHVASASTVLPAFGVDAWGQGTTVTVSS VL: DIVMTQSPLSLPVTPGEPASISCQASQELVHMNRNTYLHWYQQKPGQAPRLLIYKVSNRFPGVPDRFSGSGSGTDFTLKISRVEAEDVGVYYCAQGTSVPFTFGQGTKLEIK |
| 0.2 |  | dBBDu183H Y97W/dBBDu072L (antibody, name in Kabat numbering, V domains shown) VH: QVQLVESGGGLVQPGRSLRLSCAASGFTFSNAWMHWVRQAPGKGLEWVAQIKDKGNAYAAYYAPSVKGRFTISRDDSKNSIYLQMNSLKTEDTAVYYCHYVHWASASTVLPAFGVDAWGQGTTVTVSS VL: DIVMTQSPLSLPVTPGEPASISCQASQELVHMNRNTYLHWYQQKPGQAPRLLIYKVSNRFPGVPDRFSGSGSGTDFTLKISRVEAEDVGVYYCAQGTSVPFTFGQGTKLEIK |
| 0 |  | dBBDu183H Y97T/dBBDu072L (antibody, name in Kabat numbering, V domains shown) VH: QVQLVESGGGLVQPGRSLRLSCAASGFTFSNAWMHWVRQAPGKGLEWVAQIKDKGNAYAAYYAPSVKGRFTISRDDSKNSIYLQMNSLKTEDTAVYYCHYVHTASASTVLPAFGVDAWGQGTTVTVSS VL: DIVMTQSPLSLPVTPGEPASISCQASQELVHMNRNTYLHWYQQKPGQAPRLLIYKVSNRFPGVPDRFSGSGSGTDFTLKISRVEAEDVGVYYCAQGTSVPFTFGQGTKLEIK |
| 0 |  | dBBDu183H Y97K/dBBDu072L (antibody, name in Kabat numbering, V domains shown) VH: QVQLVESGGGLVQPGRSLRLSCAASGFTFSNAWMHWVRQAPGKGLEWVAQIKDKGNAYAAYYAPSVKGRFTISRDDSKNSIYLQMNSLKTEDTAVYYCHYVHKASASTVLPAFGVDAWGQGTTVTVSS VL: DIVMTQSPLSLPVTPGEPASISCQASQELVHMNRNTYLHWYQQKPGQAPRLLIYKVSNRFPGVPDRFSGSGSGTDFTLKISRVEAEDVGVYYCAQGTSVPFTFGQGTKLEIK |
| 0 |  | dBBDu183H Y97N/dBBDu072L (antibody, name in Kabat numbering, V domains shown) VH: QVQLVESGGGLVQPGRSLRLSCAASGFTFSNAWMHWVRQAPGKGLEWVAQIKDKGNAYAAYYAPSVKGRFTISRDDSKNSIYLQMNSLKTEDTAVYYCHYVHNASASTVLPAFGVDAWGQGTTVTVSS VL: DIVMTQSPLSLPVTPGEPASISCQASQELVHMNRNTYLHWYQQKPGQAPRLLIYKVSNRFPGVPDRFSGSGSGTDFTLKISRVEAEDVGVYYCAQGTSVPFTFGQGTKLEIK |
| 0 |  | dBBDu183H Y97S/dBBDu072L (antibody, name in Kabat numbering, V domains shown) VH: QVQLVESGGGLVQPGRSLRLSCAASGFTFSNAWMHWVRQAPGKGLEWVAQIKDKGNAYAAYYAPSVKGRFTISRDDSKNSIYLQMNSLKTEDTAVYYCHYVHSASASTVLPAFGVDAWGQGTTVTVSS VL: DIVMTQSPLSLPVTPGEPASISCQASQELVHMNRNTYLHWYQQKPGQAPRLLIYKVSNRFPGVPDRFSGSGSGTDFTLKISRVEAEDVGVYYCAQGTSVPFTFGQGTKLEIK |
| 0 |  | dBBDu183H Y97H/dBBDu072L (antibody, name in Kabat numbering, V domains shown) VH: QVQLVESGGGLVQPGRSLRLSCAASGFTFSNAWMHWVRQAPGKGLEWVAQIKDKGNAYAAYYAPSVKGRFTISRDDSKNSIYLQMNSLKTEDTAVYYCHYVHHASASTVLPAFGVDAWGQGTTVTVSS VL: DIVMTQSPLSLPVTPGEPASISCQASQELVHMNRNTYLHWYQQKPGQAPRLLIYKVSNRFPGVPDRFSGSGSGTDFTLKISRVEAEDVGVYYCAQGTSVPFTFGQGTKLEIK |
